Read-outs that look alike come from different tables or passages of the source.
Columns and labels:
[1] = molecular target: T1, DEN2-NS1 (Thailand/16681/84) (Dengue virus 2) (UniProt P29990); experiment: EMSA
T1 sequence: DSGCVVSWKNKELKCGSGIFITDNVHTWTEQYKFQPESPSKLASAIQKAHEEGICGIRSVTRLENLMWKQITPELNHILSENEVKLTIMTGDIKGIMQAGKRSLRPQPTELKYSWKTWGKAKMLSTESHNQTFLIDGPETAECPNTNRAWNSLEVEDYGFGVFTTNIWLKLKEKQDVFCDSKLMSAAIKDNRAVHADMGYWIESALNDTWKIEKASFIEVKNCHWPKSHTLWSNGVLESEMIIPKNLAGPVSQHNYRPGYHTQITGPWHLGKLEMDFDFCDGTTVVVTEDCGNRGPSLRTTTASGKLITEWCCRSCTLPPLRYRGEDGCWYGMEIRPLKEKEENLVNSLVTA

[2] = molecular target: T2, DEN4-NS1 (Dominica/814669/1981) (Dengue virus 4) (UniProt P09866); experiment: SPR
T2 sequence: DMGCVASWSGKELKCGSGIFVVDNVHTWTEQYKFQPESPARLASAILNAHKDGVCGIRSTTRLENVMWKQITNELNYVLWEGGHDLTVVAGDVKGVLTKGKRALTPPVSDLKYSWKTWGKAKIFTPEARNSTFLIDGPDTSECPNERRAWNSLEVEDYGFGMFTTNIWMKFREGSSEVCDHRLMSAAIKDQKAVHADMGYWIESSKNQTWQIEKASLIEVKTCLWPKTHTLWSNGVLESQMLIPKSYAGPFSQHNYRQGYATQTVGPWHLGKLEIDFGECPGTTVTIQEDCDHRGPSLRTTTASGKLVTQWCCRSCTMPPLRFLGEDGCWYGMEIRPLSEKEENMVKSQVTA

[3] = molecular target: T1, DEN2-NS1 (Thailand/16681/84) (Dengue virus 2); experiment: SPR
[4] = molecular target: T3, DEN3-NS1 (Sri Lanka D3/H/IMTSSA-SRI/2000/1266) (Dengue virus 3) (UniProt Q6YMS4); experiment: SPR; details: Ds at both n; biotin-dT in 3' mini-hairpin
T3 sequence: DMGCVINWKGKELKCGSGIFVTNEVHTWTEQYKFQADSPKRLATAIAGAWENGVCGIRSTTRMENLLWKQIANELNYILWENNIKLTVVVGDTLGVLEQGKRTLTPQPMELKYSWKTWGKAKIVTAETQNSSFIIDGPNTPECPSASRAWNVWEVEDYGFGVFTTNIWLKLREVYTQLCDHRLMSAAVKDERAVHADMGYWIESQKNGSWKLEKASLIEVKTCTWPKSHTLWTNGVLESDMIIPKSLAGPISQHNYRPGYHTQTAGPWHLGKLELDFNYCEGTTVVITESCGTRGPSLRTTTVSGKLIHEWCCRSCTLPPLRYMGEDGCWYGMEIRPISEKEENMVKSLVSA

[5] = molecular target: T4, DEN1-NS1 (Nauru/Western Pacific/1974) (Dengue virus 1) (UniProt P17763); experiment: SPR; details: Ds unnatural base at both n; biotin-dT in 3' mini-hairpin CGCG(L)AGCG
T4 sequence: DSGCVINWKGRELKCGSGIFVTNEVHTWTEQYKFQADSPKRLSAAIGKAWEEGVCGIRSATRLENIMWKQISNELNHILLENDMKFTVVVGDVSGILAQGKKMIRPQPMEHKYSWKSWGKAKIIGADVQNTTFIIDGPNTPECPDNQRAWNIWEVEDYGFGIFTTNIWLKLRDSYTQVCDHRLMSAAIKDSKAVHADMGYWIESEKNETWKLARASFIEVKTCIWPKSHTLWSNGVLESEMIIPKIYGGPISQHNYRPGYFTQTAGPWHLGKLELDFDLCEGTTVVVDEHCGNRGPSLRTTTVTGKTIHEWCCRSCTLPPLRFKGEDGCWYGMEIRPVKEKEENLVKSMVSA

[6] = molecular target: SIN DEN1-NS1 (Singaporean variant, 96.3% homology) (Dengue virus 1) (UniProt P33478); experiment: SPR; details: Ds at both x, 25 C, 150 mM NaCl, 1 mM MgCl2
[7] = molecular target: T2, DEN4-NS1 (Dominica/814669/1981) (Dengue virus 4); experiment: EMSA; details: Ds at both x; 5' biotin-dT; 2 M urea gel
[8] = two Ds and one diol-Pa, biotin-dT in 3' mini-hairpin
[9] = Ds at both n, biotin-dT in 3' mini-hairpin

In the case of “GGTCCGNCTGGGAACAAGNGGCGGGAGGGANGGGTGTGGGTGCGACAAGCGGCGCGTAGCG [D2-1d-61h]”, the binding signal [1, 8] is reported as > 60 % shifted.

Work on “CTCCGCTGTCAAACGGNTATCACGGCNACACACCTGCGGACAGCGGAGCGCGTAGCG [D4-1-57h]” yielded a Kd [2, 9] of 0.029 nM.

“TTTTCGCACTCCATGATATGGTCTACTGGTCCGNCTGGGAACAAGNGGCGGGAGGGANGGGTGTGGGTGCGACAAGCGGAGTAGTTAGACCGTCAAA [D2-1y-96]” showed a Kd ([3]; two Ds and one diol-Px, 5' biotin) of 0.041 nM.

For “GGCTGGTCCGNCTGGGAACAAGNGGCGGGAGGGANGGGTGTGGGTGCGACAAGCGGACCAGCCCGCGTAGCG [D2-1d-72h-d]”, the binding signal ([1]; Ds at 11 and 23, biotin-dT in 3' mini-hairpin) was < 10 % shifted.

Sequence “CCGCTTGTCATCTANCCTGGCCNTGTGGTACTGTAACGGCTGACAAGCGGCGCGTAGCG [D3-2-59h (AptD3)]” has a Kd [4] of 0.057 nM.

“TGATATGGTCTACTGTCTCAACGGTTGTCAAACGGNTATCACGGCNACACACCTGCGGACAAGCGGAGTAGTTAGACC [D4-1-78]” showed a Kd ([2]; Ds at both x, 5' biotin-dT) of 0.062 nM.

“GACGGTCTACTGGTCCGNCTGGGAACAAGNGGCGGGAGGGANGGGTGTGGGTGCGACAAGCGGAGTAGTTAGACCGTCCGCGTAGCG [D2-1d-87h]” showed a Kd [3, 8] of 0.105 nM.

“CGGCGGAGACGTAACGCNTATCAAATCNAAACAGCTTAGGGTCCGCCGCGCGTAGCG [D4-3-57h (AptD4)]” was tested, and the Kd [2, 9] was 0.03 nM.

Sequence “TGATATGGTCTACTGTGGCGCGAGGGAATCNACGCNTATCAAATANAAACAGCTAATGACAAGCGGAGTAGTTAGACC [D4-3-78]” has a Kd ([2]; Ds at x (three), 5' biotin-dT) of 0.034 nM.

With “CCCCAGACGGACTGGTGTNCTCGGNATGGCCGTCTGGGGCGCGTAGCG [D1-1-48h (AptD1)]” the Kd [5] was 0.182 nM.

“TTTTCGCACTCCATGATATGGTCTACTGAGCGAGACGATGCTGCTAAANTACGCCGTGGTNACGAAGACAGACAAGCGGAGTAGTTAGACCGTGAAA [19D1F1 (isolate, AptD1b)]” was tested, and the Kd ([6]; 5' biotin) was 0.0091 nM.

“GGCTGGTCCGNCTGGGAACAAGNGGCGGGAGGGANGGGTGTGGGTGCGACAAGCGGACCAGCCCGCGTAGCG [AptD2e (Cont-D2, natural-base variant)]” was tested, and the binding signal [1] was < 10 % shifted.

For “TGATATGGTCTACTGTATAATCCGCNTTCGTCATGTGGNTTGGATCTGGGTCTGGCAGACAAGCGGAGTAGTTAGACC [D4-4-78]”, the binding signal [7] was > 60 % shifted.

“GGCTGGTCCGNCTGGGAACAAGNGGCGGGAGGGANGGGTGTGGGTGCGACAAGCGGACCAGCCCGCGTAGCG [D2-1d-72h-c]” was tested, and the binding signal ([1]; Ds at 11, diol-Pa at 35, biotin-dT in 3' mini-hairpin) was < 10 % shifted.

In the case of “TTTTCGCACTCCATGATATGGTCTACTGGTCCGNCTGGGAACAAGNGGCGGGAGGGANGGGTGTGGGTGCGACAAGCGGAGTAGTTAGACCGTCAAA [D2-1-96(3Ds)]”, the binding signal ([1]; three Ds) is reported as < 10 % shifted.

Work on “GCACTCCATGATATGGTCTACTGAGCGAGACGATGCTGCTAAANTACGCCGTGGTNACGAAGACAGACAAGCGGAGTGTCGCGTAGCG [19D1F1-3]” yielded a Kd ([6]; biotin-dT in 3' mini-hairpin) of 0.027 nM.

“GGCTGGTCCGACTGGGAACAAGNGGCGGGAGGGANGGGTGTGGGTGCGACAAGCGGACCAGCCCGCGTAGCG [D2-1d-72h(A) (D2-1d-72h-b)]” was tested, and the binding signal ([1]; Ds at position 23, diol-Pa at position 35, biotin-dT in 3' mini-hairpin) was > 40 % shifted.

In the case of “TGATATGGTCTACTGTCACANATCGCCGTAAAGNCGAAGAGCTGCGGAATCTAAGGTGACAAGCGGAGTAGTTAGACC [D4-2-78]”, the binding signal [7] is reported as > 60 % shifted.

For “GGCTGGTCCGNCTGGGAACAAGNGGCGGGAGGGANGGGTGTGGGTGCGACAAGCGGACCAGCCCGCGTAGCG [D2-1d-72h (AptD2)]”, the Kd ([3]; Ds at positions 11 and 23, diol-Pa at position 35, biotin-dT in 3' mini-hairpin) was 0.104 nM.

— patent US20220315926
